In patent US20180230214A1 (Memorial Sloan Kettering, published 2018):
Numbering of substitutions follows the chain as printed.

B1: m906 anti-CD56 Fab (Fab, V domains shown)
VH: EVQLVQSGAEVKKPGSSVKVSCKASGGTFTGYYMHWVRQAPGQGLEWMGWINPNSGGTNYAQKFQGRVTMTRDTSISTAYMELSRLRSDDTAVYYCARDLSSGYSGYFDYWGQGTLVTVSS
VL: DVVMTQSPLSLPVTPGEPASISCRSSQSLLHSNGYNFLDWYLQKPGQSPQLLIYLGSNRASGVPDRFSGSGSGTDFTLKISRVEADDVGVYYCMQSLQTPWTFGHGTKVEIKR
notes: Human Fab from light chain shuffling of a phage display clone; also called Fab46-19
B2: m903 anti-CD56 Fab (Fab, V domains shown)
VH: B1 VH
VL: not shown
notes: Human Fab from light chain shuffling of a phage display clone; also called Fab46-E5
B3: m904 anti-CD56 Fab (Fab, V domains shown)
VH: B1 VH
VL: not shown
notes: Human Fab from light chain shuffling of a phage display clone; also called Fab46-H3
B4: m905 anti-CD56 Fab (Fab, V domains shown)
VH: B1 VH
VL: B1 VL with F37Y, D39N, A85G, D86E, V90D, S96A, T99S, W101F, H105Q, V109L
notes: Human Fab from light chain shuffling of a phage display clone; also called Fab46-8

Molecular target: T1, human CD56 (human, UniProt P13591 20-718, limits assumed)
T1 construct: also called neural cell adhesion molecule
Test: Biacore (surface plasmon resonance), Fab
From the text: CD56 Fab selection: CD56-binding Fabs were selected with phage display technology in two steps, as previously described (Feng, et al. A novel human monoclonal antibody that binds with high affinity to mesothelin-expressing cells and kills them by antibody-dependent cell-mediated cytotoxicity. Mol Cancer Ther. 8(5):1113-1118 (2009)). Firstly, CD56 Fabs were identified by panning and screening of a large naïve human antibody library through multiple rounds of binding and amplification. In the second step, the selected clone with the best in vitro and in vivo binding property was affinity matured through a light chain shuffling process, where the VH of the clone was combined with the VL repertoire from the original library. The sub-library was further panned and screened with CD56 to obtain Fab clones with the same epitope but different affinities. Binding of the Fabs was confirmed with ELISA and affinities estimated with Surface Plasmon Resonance method on a Biacore Processing unit X100.

Binder	Kd [nM]
B1	4.49
B2	236
B3	90.9
B4	9.17
